Assay results as given in article PMC3308961, “Chemical Mechanism of UDP-Galactopyranose Mutase from Trypanosoma cruzi: A Potential Drug Target against Chagas' Disease” (PLoS ONE, 2012).

What was measured:
[1] = biological target: T1, TcUGM (Trypanosoma cruzi, UniProt Q4E1W2); experiment: UV-visible spectrum of purified enzyme; HPLC of released flavin; format: binding; settings: noncovalently bound, co-purified
T1 construct: gene Tc00.1047053507993.160

[2] = tested on: NC(=O)C1=CN([C@@H]2O[C@H](COP(=O)(O)OP(=O)(O)OC[C@H]3O[C@@H](n4cnc5c(N)ncnc54)[C@H](O)[C@@H]3O)[C@@H](O)[C@H]2O)C=CC1; experiment: purified protein; settings: oxidase activity (kox), air-saturated 50 mM phosphate pH 7.0, room temperature, no UDP-Galp
[3] = tested on: NC(=O)C1=CN([C@@H]2O[C@H](COP(=O)(O)OP(=O)(O)OC[C@H]3O[C@@H](n4cnc5c(N)ncnc54)[C@H](OP(=O)(O)O)[C@@H]3O)[C@@H](O)[C@H]2O)C=CC1; experiment: purified protein; settings: oxidase activity (kox), air-saturated 50 mM phosphate pH 7.0, room temperature, no UDP-Galp
[4] = tested on: O=c1ccn([C@@H]2O[C@H](COP(=O)(O)OP(=O)(O)O[C@H]3O[C@@H]([C@H](O)CO)[C@H](O)[C@H]3O)[C@@H](O)[C@H]2O)c(=O)[nH]1; experiment: purified protein; settings: reduced with 20 mM dithionite, 25 mM Hepes, 125 mM NaCl pH 7.5, 37°C

T1 sequence (Q4E1W2 entry or part of it): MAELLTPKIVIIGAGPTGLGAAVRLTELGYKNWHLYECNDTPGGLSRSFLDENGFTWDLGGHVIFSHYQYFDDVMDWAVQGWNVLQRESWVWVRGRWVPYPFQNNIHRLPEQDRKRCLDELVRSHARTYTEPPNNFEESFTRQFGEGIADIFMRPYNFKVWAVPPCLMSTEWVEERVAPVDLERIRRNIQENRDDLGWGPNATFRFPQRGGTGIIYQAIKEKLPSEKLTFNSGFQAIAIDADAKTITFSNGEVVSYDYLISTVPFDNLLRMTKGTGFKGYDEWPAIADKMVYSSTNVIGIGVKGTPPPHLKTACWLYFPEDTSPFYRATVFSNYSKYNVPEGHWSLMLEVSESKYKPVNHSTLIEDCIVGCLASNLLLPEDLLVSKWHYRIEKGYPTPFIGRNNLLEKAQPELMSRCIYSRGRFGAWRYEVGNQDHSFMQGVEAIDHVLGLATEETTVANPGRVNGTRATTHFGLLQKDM

Compound	UV-visible spectrum of purified enzyme; HPLC of released flavin [1]	Km [2]	kcat [2]	Km [3]	kcat [3]	Km [4]	kcat [4]	kcat/Km [4]
Cc1cc2nc3c(=O)[nH]c(=O)nc-3n(C[C@H](O)[C@H](O)[C@H](O)COP(=O)(O)OP(=O)(O)OC[C@H]3O[C@@H](n4cnc5c(N)ncnc54)[C@H](O)[C@@H]3O)c2cc1C [FAD]	Recombinant TcUGM contained noncovalently bound flavin cofactor							
TcUGM (Trypanosoma cruzi strain CL Brener)		90 ± 20 µM	0.015 ± 0.002 s⁻¹	15 ± 2 µM	0.030 ± 0.002 s⁻¹	140 ± 10 µM	13.4 ± 0.3 s⁻¹	93000 ± 6000 M⁻¹ s⁻¹
